Target: T1, Spo0J R82A (Bacillus subtilis, UniProt P26497 1-282, R82A)
T1 sequence: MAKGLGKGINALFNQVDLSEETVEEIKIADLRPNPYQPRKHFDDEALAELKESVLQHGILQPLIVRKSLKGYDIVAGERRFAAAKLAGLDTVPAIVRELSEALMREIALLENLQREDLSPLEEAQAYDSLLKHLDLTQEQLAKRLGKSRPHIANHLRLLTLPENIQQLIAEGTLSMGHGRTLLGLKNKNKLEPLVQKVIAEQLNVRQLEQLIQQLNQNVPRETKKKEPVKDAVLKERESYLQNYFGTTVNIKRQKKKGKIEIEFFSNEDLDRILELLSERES
Test: white light interferometry (BLItz), Hill fit (n=1.9±0.5); 150 mM NaCl, 0.02% Tween-20; apparent Kd; PIFE: 20 mM Tris pH 7.5, 100 ug/ml BSA, 100 mM NaCl (150 mM for Spo0J R82A Kd), flow 100 ul/min; BLItz: 20 mM Tris pH 7.5, 150 mM NaCl, 100 ug/ml BSA, 0.02% Twe

B1: 39-bp scrambled parS duplex (oTG044F/oTG043R) (dsDNA)
DNA 1: CAGTTGAATCTGACAAATGACTAACAATGAGAGCAAAAA
DNA 2: TTTTTGCTCTCATTGTTAGTCATTTGTCAGATTCAACTG
Work on B1 yielded a Kd of 131 ± 24.3 nM.

Source: paper PMC4786781
